Where “and” joins values, the source holds several entries; their conditions need not be identical. Equal values may be shown once.
How the values were obtained:
[1] = tested on: heart failure in rat caused by ligation of coronary artery; assay: Echocardiography heart function, heart failure by ligation of coronary artery; assay type: in vivo, SD rat
Protocol: Route of drug administration: in both testing drug group and model group the drug was injected into the tail vein once per day for consecutive 5 days. Echocardiography was performed at the 6th day prior to drug administration, then continuously injected for 5 days. Volume of each drug injection was 0.4 ml/100 g body weight.
After anesthesia with intra-abdominal injection of 100 mg/kg ketamine, the rat was fixed on rat plate in supine position, disinfection of the neck region with bromo-geramine was carried out after depilating. Midline incision was made, trachea was found after separating the anterior cervical muscle, 18 G arterial indwelling trochar was inserted into the trachea at the level of 3-5 tracheal cartilage, took out the stylet, push the plastic cannula 1-2 cm further into the trachea, fixed it for later connection with ventilator for small animal (tidal volume was about […], frequency was 80/min). […] Then closed the chest wall, block the opening of the ventilator to inflate the lungs, forcefully pressed the chest to drive out the air, then sutured the chest muscle and skin. Monitoring the respiration, after spontaneous respiration recovered, withdrawn the ventilator, took the animal back to its cage for breeding. In the pseudo-operation group, only the pericardium was tore open, but without the coronary artery ligation.
Echocardiograph was performed for the operated rat at about 6 days postoperatively, those animals with about 50% reduction of EF value were randomly divided into groups, the EF value of each group was all about 50%, then drug administration began.
Those animals with EF value of about 50% were randomly divided into model group (negative group) and 3-dosage level testing drug groups with 12-13 animals in each group. Route of drug administration in testing drug group and model group was injection into the tail vein, once every day for consecutive 5 days. After echocardiography at the 6th day, another 5 days of consecutive drug administration was carried out. Drug volume of each injection was 0.4 ml/100 g body weight.
Echocardiography was performed under anesthesia with ketamine after the legation and prior to drug administration and at the 6th day, 11th day of drug administration, the major index included: • EF: heart ejection fraction, reflecting ejection function of ventricle; • FS: ventricular short axis shortening rate, reflecting contraction function of ventricle; • LVDd: diastolic maximal inner diameter of left ventricle (cm); • LVDs: systolic minimal inner diameter of left ventricle (cm). 6.3.3.2 Determination of the Content of Plasma Renin-angiotensin-aldosterone

[2] = tested on: toxic myocarditis caused by Adriamycin in rat; assay: Myocardial pathologic scoring, Adriamycin rat model; assay type: in vivo, SD rat; settings: Adriamycin model
Protocol: Heart was extirpated after thoracotomy (auricle should be reserved), the heart weight was measured after dried with absorbent paper, ratio of heart weight/body weight calculated; outer diameter of the heart was measured at ½ site of the vertically standing heart; medium part of the left ventricle was crosswise cut open, maximal thickness of free wall of the left ventricle measured; the heart was fixed with 10% formaldehyde, paraffin embedded and HE stained, observation of the myocardial structure carried out under optic microscope, give out pathologic score.
Scoring could be performed between grade 1 and grade 2 or between grade 2 and grade 3, e.g. grade 1.5, grade 2.5 etc. 6.3.3.3 Determination of Hemodynamics Index

[3] = 5 μg/kg group, prior to drug administration, (1)
[4] = 5 μg/kg iv 10 qd, 10 days after the drug administration, (II)
[5] = 5 μg/kg iv qd × 5, 5 days after the drug administration, (1)
[6] = 5 μg/kg iv qd × 5, 5 days after the drug administration, (II)
[7] = 5 μg/kg iv qd × 10, 10 days after the drug administration, (1)
[8] = 5 μg/kg, Table 4, titled 10 days after the drug administration, (II)
[9] = 10 μg/kg group, prior to drug administration, (1)
[10] = 10 μg/kg iv 10 qd, 10 days after the drug administration, (II)
[11] = 10 μg/kg iv qd × 5, 5 days after the drug administration, (1)
[12] = 10 μg/kg iv qd × 5, 5 days after the drug administration, (II)
[13] = 10 μg/kg iv qd × 10, 10 days after the drug administration, (1)
[14] = 10 μg/kg, Table 4, titled 10 days after the drug administration, (II)
[15] = 20 μg/kg group, prior to drug administration, (1)
[16] = 20 μg/kg iv 10 qd, 10 days after the drug administration, (II)
[17] = 20 μg/kg iv qd × 5, 5 days after the drug administration, (1)
[18] = 20 μg/kg iv qd × 5, 5 days after the drug administration, (II)
[19] = 20 μg/kg iv qd × 10, 10 days after the drug administration, (1)
[20] = 20 μg/kg, Table 4, titled 10 days after the drug administration, (II)

B1: rhNRG-1 β: Recombinant human neuregulin fragment of 61 amino acid (SEQ ID NO:4), 3 disulfide bonds, expressed in E. coli (protein, listed as Homo sapiens)
chain: SHLVKCAEKEKTFCVNGGECFMVKDLSNPSRYLCKCPNEFTGDRCQNYVMASFYKAEELYQ
modifications: disulfide (positions not given here)
[1]; [3]
  EF: 49.3%
  FS: 22.0%
  LVDd: 0.761 cm
  LVDs: 0.596 cm
[1]; [4]
  EF: 57.90%
  FS: 29.26%
  LVDd: 0.70 cm
  LVDs: 0.53 cm
[1]; [5]
  EF: 62.9±8.4% and 62.90%
  FS: 30.3±6.1% and 30.32%
  LVDd: 0.73 cm
  LVDs: 0.54 cm
[1]; [6]
  EF: 56.76%
  FS: 28.35%
  LVDd: 0.74 cm
  LVDs: 0.58 cm
[1]; [7]
  EF: 59.2±12.4% and 59.2%
  FS: 28.4±8.6% and 28.4%
  LVDd: 0.72 cm
  LVDs: 0.55 cm
[1]; 5 μg/kg, 5-day after drug administration and 35-day after drug withdrawal
  EF value: 69.9 ± 28.6%
[1]; 5 μg/kg, 5-day after drug administration, long-term monitoring
  EF value: 75.8 ± 15.3%
[1]; [8]
  EF: 50.81%
  FS: 22.83%
  LVDd: 0.66 cm
  LVDs: 0.51 cm
[1]; [9]
  EF: 49.5%
  FS: 22.1%
  LVDd: 0.709 cm
  LVDs: 0.555 cm
[1]; [10]
  EF: 66.54%
  FS: 34.28%
  LVDd: 0.68 cm
  LVDs: 0.49 cm
[1]; [11]
  EF: 64.4±12.9% and 64.3±12.8% and 64.35%
  FS: 32.0±9.5% and 32.01%
  LVDd: 0.71 cm
  LVDs: 0.51 cm
[1]; [12]
  EF: 56.51%
  FS: 26.53%
  LVDd: 0.72 cm
  LVDs: 0.54 cm
[1]; [13]
  EF: 61.4±15.0% and 61.4%
  FS: 30.3±10.4% and 30.3%
  LVDd: 0.7 cm
  LVDs: 0.51 cm
[1]; 10 μg/kg, 5-day after drug administration and 35-day after drug withdrawal
  EF value: 63.8 ± 23.8%
[1]; 10 μg/kg, 5-day after drug administration, long-term monitoring
  EF value: 77.3 ± 11.6%
[1]; [14]
  EF: 51.67%
  FS: 23.27%
  LVDd: 0.64 cm
  LVDs: 0.49 cm
[1]; 10 μg/kg, after ligation prior to drug administration, long-term monitoring
  EF value: 52.2 ± 12.8%
[1]; [15]
  EF: 49.3%
  FS: 21.7%
  LVDd: 0.730 cm
  LVDs: 0.575 cm
[1]; [16]
  EF: 70.22%
  FS: 36.49%
  LVDd: 0.65 cm
  LVDs: 0.42 cm
[1]; [17]
  EF: 71.1±12.0% and 71.07%
  FS: 36.9±9.7% and 36.88%
  LVDd: 0.70 cm
  LVDs: 0.46 cm
[1]; [18]
  EF: 65.47%
  FS: 34.23%
  LVDd: 0.68 cm
  LVDs: 0.46 cm
[1]; [19]
  EF: 75.7±10.8% and 75.7%
  FS: 41.3±11.0% and 41.3%
  LVDd: 0.6 cm
  LVDs: 0.5 cm
[1]; 20 μg/kg, 5-day after drug administration, long-term monitoring
  EF value: 79.2 ± 4.7 %
[1]; [20]
  EF: 52.29%
  FS: 23.89%
  LVDd: 0.74 cm
  LVDs: 0.56 cm
[1]; 20 μg/kg, after ligation prior to drug administration, long-term monitoring
  EF value: 52.4 ± 13.8%
[2]; 10 μg/kg iv qd × 10 d, (I)
  Pathologic scoring: 1.83 ± 0.41
[2]; 10 μg/kg iv qd × 10 d, (II)
  Pathologic scoring: 2.167 ± 0.516
[2]; 20 μg/kg iv qd × 10 d, (I)
  Pathologic scoring: 1.17 ± 0.93
[2]; 20 μg/kg iv qd × 10 d, (II)
  Pathologic scoring: 1.667 ± 0.931
[2]; 20 μg/kg testing drug group
  myocardial pathologic score of the section shown in FIG. 20: 1
[2]; 40 μg/kg iv qd × 10, (II)
  Pathologic scoring: 0.583 ± 0.204
[2]; 40 μg/kg iv qd × 10 d, (I)
  Pathologic scoring: 0.33 ± 0.41
[2]; 40 μg/kg testing drug group
  myocardial pathologic score of the section shown in FIG. 20: 1
[2]; 130 μg/kg testing drug group (so in the source)
  myocardial pathologic score of the section shown in FIG. 20: 1.5
